According to patent US12344663B2, “Anti-C3 antibodies and antigen-binding fragments thereof and their uses for treating eye or ocular diseases” (CDR-Life AG, priority 2021, dated 2025):

Assay: In vitro BrM permeation assay, Ussing chamber
Type: in vitro ADME, porcine
Settings: 0.1 mg/ml, up to 72 h, in words
Protocol: Porcine Bruch's membrane samples are used for this measurement. Porcine eyes are collected from the slaughterhouse) no more than 6 hours after the animals were sacrificed and stored at 4° C. until use (on same day).
Preparation of enriched Bruch's Membrane (BrM): The eyes are placed into a disposable petri-dish and any residual tissue surrounding the eyeball is removed. The eyeball is incised next to the iris with a scalpel and the front part of the eye as well as lens, vitreous and retinal tissue are removed from the eyecup. […]
Sampling and membrane integrity analysis: For sampling at different timepoints (4 h, 24 h, 48 h and 72 h) the solution in the single compartments is mixed by carefully pipetting up and down and 90 μl were transferred separately from each sample and diffusate chamber to collection tubes. […] Accumulation of blue particles in the second compartment is observed and camera pictures are recorded to control for overall membrane integrity.
Sample analysis: 15 μl of each solution from the sample and diffusate chambers are effectively loaded on 2 precast polyacrylamide gels (NuPAGE Bis-Tris gels) together with a similar amount of stored mastermix as loading control. The first gel is analyzed by standard SDS-PAGE and Coomassie-based staining methods for protein detection (anti-C3 scFv). […]
Evaluation: Pictures of the SDS-gels are analyzed using ImageJ2 software (Fiji). […]

B1: Clone I: humanized anti-C3 scFv, VH SEQ ID NO: 20, VL SEQ ID NO: 21; scFv SEQ ID NO: 26 or 27 (antibody, V domains shown)
VH: QVQLVESGGGSVQPGRSLRLSCAASGFTFSNYAMNWVRQAPGKGLEWVAVISYDGSNKYYADSVKGRFTISRDNSKNTLYLQMNSLRAEDTASYYCARAVGYHHARLDPWGCGTSVTVSS
VL: QLVLTQSPSASASLGASVKLTCTLSSAHKTYTIDWYQQQPEKCPRYLMQLKSDGSYTKGSGIPDRFSGSSSGAERYLTISSLQSEDEADYYCGTEGVGGYVFGGGTKLTVLG
modifications: VH; VL
  Diffusion/penetration through porcine Bruch's membrane: superior diffusion ability
